The text below walks through data of patent US20230226096A1 (Orna Therapeutics, Inc., priority 2020, published 2023).

First the molecules themselves.
B1: Ludopivirus (nucleic acid, listed as Ludopivirus sp.)
DNA: TAGACCCCCACCTAGCCCTTTTCCCCGTCAGTGGGGGGCTTACTCACTGGGCATCTGTTAATCTGGCCTAACTAGATTGACACCACTCCCTTGGAACGTAACTCCACGCTAACTCACTGGCTCTACGCACAGACACACGGTCTTTCTGCTATCCCCGGGGAAGATACCAGATGGCGACCGGCTGTCCCAGCGGCCTAGTAGCTACTCGGGTTGAGTACCCACCACGGTTTTGACGCCTGCTAAAATTCAAGAGACAGAGGTAGGGGTGCTTAGTGTGTGGGGGAAGTTCCCACAAGCGAGGCAAAGCATTGCTCCCTCGCGTCACCGGGTGCAAGGTAAATTGGCTGGACTTCCGCTCTACCCTTGCTACTCGCCCTCTTCGGAGGGTTCGAAGTGACACTAGGTATACGCATGGTTGGGAAACCATGCCTGGCCTACTACTGGGTGATAGCCTGGCGGCGGGTCCGTCTCTTGGCTTATACCCGTTGATTTGGGAT
B2: Lesavirus 2 (nucleic acid)
DNA: TCTTTCTTTATTTTCTTATGTAACTCTTCTTTTTAAGTTTTATTTTGCCTACTTGTGAGCTTATGCGGGACCACTGTCTTAGACAACCCCACATTTGTCATGAGTAAGTACACGCAACCATTACGATTACTTTTTAACCGTCTGACCTTTTGATAACAACTGAAGTTAGGCGTGAAACATGCATTTATACCAAAGTAGCCCCGCATTTCCCCACTACGGTGGGGGGGCTACCCTACTGGCTTTGGAACTGTAGCCATTATGTGTTGCCTGGCTTTCAGGATCTCACAACACAACAGTTCTCTCACAATGGAATATGGGTGAGATTGCAGTGACATGAACAAGTATCTAGTAGTACATAGACTCAAGCCTAGTTGCCTGCGGAACAACATGTGGTAACACATGCCCCAGGGTCCAAAAGACAAGGGTTAACAGCCCCTTCTAGGTGTCTGTGTGTGAAGAATACTTTAGTAGTGTTGTTATGATCTCACCTGTTAGTACAGAATGAGTATGGCTTGGTGAAGGATGTCCTACAGGTACCCATTATATGGATCTGAGTAGGAGACCACTAGTGGTGGCTTTACCGCCAGGTGAGTGGTTTAAAAAGCGTCTAGCCAAGCCAACAGCACTAGGGATAGTGCTTTCTATATTTTATATTTTCAGTGTATATGGTGACAA
B3: Pestivirus strain Aydin (nucleic acid, listed as Pestivirus sp.)
DNA: GTATACGAGATTAGCTCATACTCGTGTACAAATTGGACGTAGCAAATTTAAAAATTCGGATAGGGTCCCCATCCAGCGACGGCCGAACGGGGTTAACCATACCTCTAGTAGGACTAGCAGACGGATGGACTAGCCACAGTGGTGAGCTCCCTGGGAGGTCTAAGTTCTGAGTACAGAACAGTCGTCAGTAGTTCAACGCTGGTAAACCCCAGCCTTGAGATGCTACGTGGACGAGGGCATGCCCAAGACACACCTTAACCTGGACGGGGGTCGTCCAGGTGAAAGTACCCATCTTTGGGTGCTGGGAGTACAGCCTGATAGGGCGCTGCAGAGGCCCACTGACAGGCTAGTATAAAAATCTCTGCTGTACATGGAAC
B4: Porcine enterovirus 9 (nucleic acid, listed as Enterovirus sp.)
DNA: GAACCTTAGAAGTTTACACAAACAAAGACCAATAGGAGTCCAACACCCAGTTGGATTGCGGTCAAGCACTTCTGTTTCCCCGGACCTAGTAGTGATAGGCTGTACCCACGGCCGAAGATGAACCCGTCCGTTATCCGGCTACCTACTTCGGGAAGCCTAGTAACATTCTGAAGTCTCTGAGGCGTTTCGCTCAGCACGACCCCGGTGTAGATCGGGCTGATGGGTCTCCGCATACCCCACGGGCGACCGTGGCGGAGGCCGCGTTGGCGGCCCGCCTATGGCGAAAGCCATAGGACGCCTCTTAGATGACAGGGTGTGAAGAGCCTACTGAGCTGGGTAGTAGTCCTCCGGCCCCTGAATGCGGCTAATCCTAACCACGGAGCGTCCACCAGCAATCCAGCTGGCAGGGCGTCGTAACGGGCAACTCTGTGGCGGAACCGACTACTTTGGGTGTCCGTGTTTCCTTTTGATCCTATTTTGGCTGCTTATGGTGACAACGATAAGTTGTTATCATAAAGCTCTTGGGTTGGCCACCTGGAAAAAGTTATCAGTGTTTGATATTGTTCGGCTCTCACGCCTACCAATAAGACAAGCCCTATATTTACTTGTTGCATTTTACTCGTCAGAAGAAATCACAGAGTATCATTTGGATTTGTTACTCACATTAAGGACAAG
B5: Porcine reproductive and respiratory syndrome virus 2 (nucleic acid)
DNA: ATGACGTATAGGTGTTGGCTCTATGCCTTGGCATTTGTATTGTCAGGAGCTGTGACCATTGGCACAGCCCAAAACTTGCTGCACAGAAACACCCTTCTGTGATAGCCTCCTTCAGGGGAGCTTAGGGTTTGTCCCTAGCACCTTGCTTCCGGAGTTGCACTGCTTTACGGTCTCTCCACCCCTTTAACC
B6: Phopivirus strain NewEngland (nucleic acid)
DNA: GGGAGTAAACCTCACCACCGTTTGCCGTGGTTTACGGCTACCTATTTTTGGATGTAAATATTAATTCCTGCAGGTTCAGGTCTCTTGAATTATGTCCACGCTAGTGGCACTCTCTTACCCATAAGTGACGCCTTAGCGGAACCTTTCTACACTTGATGTGGTTAGGGGTTACATTATTTCCCTGGGCCTTCTTTGGCCCTTTTTCCCCTGCACTATCATTCTTTCTTCCGGGCTCTCAGCATGCCAATGTTCCGACCGGTGCGCCCGCCGGGGTTAACTCCATGGTTAGCATGGAGCTGTAGGCCCTAAAAGTGCTGACACTGGAACTGGACTATTGAAGCATACACTGTTAACTGAAACATGTAACTCCAATCGATCTTCTACAAGGGGTAGGCTACGGGTGAAACCCCTTAGGTTAATACTCATATTGAGAGATACTTCTGATAGGTTAAGGTTGCTGGATAATGGTGAGTTTAACGACAAAAACCATTCAACAGCTGTGGGCCAACCTCATCAGGTAGATGCTTTTGGAGCCAAGTGCGTAGGGGTGTGTGTGGAAATGCTTCAGTGGAAGGTGCCCTCCCGAAAGGTCGTAGGGGTAATCAGGGGCAGTTAGGTTTCCACAATTACAATTTGAA
B7: Pigeon picornavirus B (nucleic acid)
DNA: TTTATTTAGCTGTTAAGTTTTATTTGTGCCGAGACCCCATAGTAGGATCTTGGTGTTCCACATTAAGCTCTCCCGACCACACATCCAAACGATAGGCGGTGTAAGGGCTCCCTGGCTAAGTGTTTACTCATTGCTAGGGAAGTGTTGCGACCCGTTACCAGTAGGAATACAGGAGGTCTTAGTTGCCTAACCAGATAAAGTGGTGCTGAAATATTGCAAGCTCAATGTCTGGCGAACGACGGACTACCGTTGAACTATTGTTAACGCCCGCGTGTGTAGGCAACACACGGGTTAGTAGGTCACTTACATTGACATCCGTGCCGGGAAAGCGGATCTGAGCTATCGATTGCCTGATAGGGTGCCGGCGGGCGCGGTACGTGTGGTATAGTCCGCTGTCTTGGGGTATGGCGTCTACTCGGTTTTGTTGTCGTTTTGGAATGTCCCATGTCGGAGATGTCGTTACCGGTGTTTGCTTTACTTGTGCACGAATAAGAAAACAGAGTTTGGAGTTTTGGAAGTTAATGGATAACATCAAGTTTCCATTGCGTTCCTCGTGCATTTTAGGCCAGAAAATCGACCACAAAATCGAGA
B8: Quail picornavirus QPV1 (nucleic acid)
DNA: TTTGCATCAGTTCGCCCCTCCCCTCACCATACCTTTTTCCCCTCTTTAGGACTGATACTTGGTTATGATGAGCAGAGGATTTCGCAAGTTATGCTTCTTGATAAAAAGTAATTCACGAATCATGGGATTATAGCCTGGAAGTGAACACTCATGTGGCAAGTGGGTTAGTAGCTCTCCATGTTCCCATGTGCAGTGGACTGACAACAGTGAGTTCGGGGTTGTGTAGTAAAGGGAAAGTATTACTTACCCGCACCTGCTATACGTGGTGTACGTAGGATACGAGTTAGTAGTGCTTAGCAACTTTAAACTGGTGCTGAAATATTGCAAGGTCACTGAAGTTGTGAACGCGAACGCTCCGCCACTGCCATGTATAGCGTGCAATGCATAAATGGTGCACTACATGATACGAGGGAATGGGAAACCCTCCATGGCCGAATGCAGGGTGACAGCCTGCCGGCGGATGCCTGTTGTTAGTATAATCCGTTGTTTGCCAC
B9: Picornavirus HK21 (nucleic acid)
DNA: AAACGGGAGGATCGGCTTTGGCTTATCCTCTTAATAGTCTACAAAACTGGGCTGACTGGTGGGGGAGCTACTAGATCCGGGAGAGGACTAGTTACCCCGCGTAACTTCCCTTTTTGTCACTCCCTCCACCTACCCCTTCCCTGTCCCTTAGACTCTTAAGTAGGTGTGCAGGCCTGGCCCCCCGGAAATGGGCAAATCGGACGTTTGCGTGTAGGGTCGTTCTGAAAGGTGGGGCCCACTCCACCGTAGTAGGATCTTCCTGTTTCACGTTTAAACCTCTCCGGGCAGGTATCGCTAGACACTAGGCTGTATAGGATGGCACGCACTTAGGTTTCGCACCTTCCTAGTGCGCCAAGATCCCGCTTTTGAGCTCAAGTACATGGTTCTTTGTAAGATGTCTAACCAGAGGAGGTGGTGCTGAAATATTGCAAGCCACTCTGGCGAACGTCCACTGCATTGCCTGGAACAGGCTCTCTAGCGCCCTCCACTGGTAGCGCGGTGGTGGGTTAGTAGGATACCTATATGGACAGGGGATGCGGGAATACCCCTCACTAGCTAGTGACTGGTTGATCGACTGGCGGCGGATCCAGTGATACTTGCATAATCCGCAGACTTGGGAG
B10: Lesavirus 1 (nucleic acid)
DNA: GTAACTAATAAGCAAGTTTTACTGCCTGCAAACTGCTTCAATGGGACCACCGCTTCGGCGACCCCTTTGTTGAGTTTGTATGTTTTTAAGTAATCTTTGCAACCATACGATTATTTTAGCCGCCTCTCTATAATGATCTTGTTATAGTGGGACGTGAAACATTGGTTTTTCTCACACACGTCCGGTCACCCGGGCGTGTGTTCTTCCGTAAGTCCTATCCACATACCATCGTGGGTAGGCCAGCATGTTTGCACAGGCTGTGACAGTGTGGGTGGGCTTTCCACCTCTCAACAACACACTGAATTGCAATGCACTCACGGAGGAAATGACAATTTGGTTATAGTTTTGAACTGTGCTAGTAATTTCTTTCACATTAAGCCATGTTGCCTGCGGAATCACATGTGGTAACACATGCCTCAGGGCCCAAAAGGCACGGGTTAGCAGCCCCTTCATGGTGTGTTAGAAGTGAAAACACATAGTATGAGCTATAATATCTTTGTTGTCTTCTCTGTAGTGTACCCCGCCAAATGTAAGGATGCCCAGCAGGTACCCATTTTATGGATCTGAGCTGGGGATTGATAGTGTATCTATAAATGCACTGATCAATTTAAAAAGCGTCTAAGTTTGGCACAAACACTGGGGACAGTGTTTTTCCTTTATTCTTTTATTTGATTA

The subject of this series is HEK293 cells. The series is classed as cell-based, human. The note with it: luminescence from secreted Gluc in supernatant 24 hours after transfection of HEK293 cells; circular RNA encoding Gluc with the named IRES (UTR truncated to 675 nt).
For B1, the Expression amounted to 1.05E+05. Turning to B2, the Expression amounted to 3.67E+07. In the case of B3 it was 3.11E+06; in that of B4, 3.20E+07; in that of B5, 1.29E+05.

On to B6, for which the Expression is 1.06E+05. For B7, the Expression was determined as 1.24E+05. B8 had an Expression of 6.55E+07. The molecule B9 yielded an Expression of 4.09E+05. To B10 belongs 6.37E+06.
